Earlier results on one substance are cited in PMC8894380.

This data set addresses PRPF8 Jab1 (Saccharomyces cerevisiae) (UniProt P33334).

PRPF8 Jab1 (Saccharomyces cerevisiae), sequence (P33334 2148-2395): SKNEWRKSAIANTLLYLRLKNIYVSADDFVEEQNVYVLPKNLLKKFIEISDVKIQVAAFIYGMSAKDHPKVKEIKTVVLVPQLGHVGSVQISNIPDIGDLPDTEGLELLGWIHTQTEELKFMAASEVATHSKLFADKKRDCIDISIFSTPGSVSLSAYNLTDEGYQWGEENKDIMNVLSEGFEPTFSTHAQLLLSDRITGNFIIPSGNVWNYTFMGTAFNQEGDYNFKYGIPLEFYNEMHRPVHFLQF
BRR2 helicase region, sequence (P32639 442-2163): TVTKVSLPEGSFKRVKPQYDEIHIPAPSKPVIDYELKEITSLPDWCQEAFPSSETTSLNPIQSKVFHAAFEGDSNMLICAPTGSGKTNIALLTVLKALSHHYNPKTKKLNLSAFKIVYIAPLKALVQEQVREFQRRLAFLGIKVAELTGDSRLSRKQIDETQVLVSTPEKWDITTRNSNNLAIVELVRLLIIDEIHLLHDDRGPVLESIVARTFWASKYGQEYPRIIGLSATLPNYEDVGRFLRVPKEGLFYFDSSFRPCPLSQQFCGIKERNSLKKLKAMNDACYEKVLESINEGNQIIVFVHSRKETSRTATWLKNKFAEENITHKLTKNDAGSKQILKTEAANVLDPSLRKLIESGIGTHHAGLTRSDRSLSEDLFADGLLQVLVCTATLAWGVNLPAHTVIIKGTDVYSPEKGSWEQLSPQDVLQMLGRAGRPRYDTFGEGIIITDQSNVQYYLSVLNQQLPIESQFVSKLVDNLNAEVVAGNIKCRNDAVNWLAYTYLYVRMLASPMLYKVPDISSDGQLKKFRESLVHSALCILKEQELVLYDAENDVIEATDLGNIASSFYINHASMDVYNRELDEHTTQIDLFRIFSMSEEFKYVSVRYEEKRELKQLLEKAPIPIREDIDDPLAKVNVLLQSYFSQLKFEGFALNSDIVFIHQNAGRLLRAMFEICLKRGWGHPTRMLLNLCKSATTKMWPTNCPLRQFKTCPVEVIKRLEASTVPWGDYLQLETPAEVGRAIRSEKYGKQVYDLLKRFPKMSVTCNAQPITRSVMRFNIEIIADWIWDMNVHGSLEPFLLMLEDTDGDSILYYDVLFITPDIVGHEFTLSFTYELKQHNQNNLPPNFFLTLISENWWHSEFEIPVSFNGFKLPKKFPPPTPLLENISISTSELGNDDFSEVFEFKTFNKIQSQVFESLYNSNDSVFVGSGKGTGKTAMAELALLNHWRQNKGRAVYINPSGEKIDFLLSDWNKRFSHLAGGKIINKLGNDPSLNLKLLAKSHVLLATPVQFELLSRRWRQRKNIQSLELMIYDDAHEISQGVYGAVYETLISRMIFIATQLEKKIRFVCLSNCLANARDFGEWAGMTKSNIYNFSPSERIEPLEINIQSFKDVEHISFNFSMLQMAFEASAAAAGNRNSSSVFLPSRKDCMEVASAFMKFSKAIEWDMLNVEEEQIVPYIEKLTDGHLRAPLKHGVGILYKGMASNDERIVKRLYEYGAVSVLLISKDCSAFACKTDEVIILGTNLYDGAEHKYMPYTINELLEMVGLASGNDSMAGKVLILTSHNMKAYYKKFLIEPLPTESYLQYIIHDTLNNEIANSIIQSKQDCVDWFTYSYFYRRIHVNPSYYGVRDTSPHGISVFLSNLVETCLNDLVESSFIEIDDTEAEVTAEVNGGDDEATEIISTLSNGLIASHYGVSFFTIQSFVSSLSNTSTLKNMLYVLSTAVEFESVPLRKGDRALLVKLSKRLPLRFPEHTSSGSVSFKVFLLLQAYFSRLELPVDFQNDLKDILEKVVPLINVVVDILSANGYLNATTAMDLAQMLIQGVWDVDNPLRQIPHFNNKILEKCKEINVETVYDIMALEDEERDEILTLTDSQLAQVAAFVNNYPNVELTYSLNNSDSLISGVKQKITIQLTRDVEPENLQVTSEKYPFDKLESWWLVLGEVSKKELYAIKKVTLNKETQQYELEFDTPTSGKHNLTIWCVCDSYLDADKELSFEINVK

Take “BRR2 helicase region (from UniProt P32639)”: the equilibrium dissociation constant (Kd) – broadly, the concentration at which binding is half-saturated – is 8 nM.
